The target of this experiment is HLA-B*51:01 (human | human (endogenous in 721.221)).

KIR3DL1, sequence (P43629 22-444): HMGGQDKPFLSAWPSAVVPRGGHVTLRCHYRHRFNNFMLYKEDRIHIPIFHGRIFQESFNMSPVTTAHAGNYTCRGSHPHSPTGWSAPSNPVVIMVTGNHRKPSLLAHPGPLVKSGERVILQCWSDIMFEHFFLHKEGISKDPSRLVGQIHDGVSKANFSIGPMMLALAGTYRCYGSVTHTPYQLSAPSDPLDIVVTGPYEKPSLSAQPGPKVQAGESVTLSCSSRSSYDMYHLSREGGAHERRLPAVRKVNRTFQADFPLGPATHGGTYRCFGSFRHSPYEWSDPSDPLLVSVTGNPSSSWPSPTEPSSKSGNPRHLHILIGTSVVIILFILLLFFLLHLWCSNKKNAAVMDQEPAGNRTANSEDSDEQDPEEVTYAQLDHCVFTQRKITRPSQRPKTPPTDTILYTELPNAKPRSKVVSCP

Regarding “KIR3DL1 (from UniProt P43629 22-444) (receptor)”, the degranulation: mean frequency of CD107a+ cells in the KIR3DL1 single positive NK subset after co-culture (1:1, 3 hours) with 221-B*51:01-shERAP1 (% CD107a+ cells) was found to be 25.8.
